Source: PMC9860126, “Mechanistic insights into the nickel-dependent allosteric response of the Helicobacter pylori NikR transcription factor”

Tests used:
Assay in all cases: fluorescence anisotropy; Ni(II)-bound; FA: 5 nM DNA, 20 mM Tris pH 7.6, 100 mM NaCl, 3 mM MgSO4, temperature not stated (Ni loading 1.2 eq NiSO4 per monomer at RT). EMSA: 20 mM Tris pH 7.5, 100 mM KCl, 3 mM MgCl2, 0.1% IGEPAL, 5% glycerol, 0.1 mg/ml herring sperm DNA, RT; gel with 800 uM NiSO4 at 4 C
Conditions in all cases: protein: recombinant; tags: none stated; chain copies: 4; label: fluorescein on internal thymine (T14 of strand 1); blunt
HpNikR K64A = HpNikR K64A (Helicobacter pylori G27, UniProt A1YSQ9 1-148, K64A)
HpNikR K140A = HpNikR K140A (Helicobacter pylori G27, UniProt A1YSQ9 1-148, K140A)
HpNikR GGS = HpNikR GGS (Helicobacter pylori G27, UniProt A1YSQ9 1-148, P59G;N60G;D61S)

B1: ureA promoter 32 bp (FA) (dsDNA)
DNA 1: ATATAACACTAATTCATTTTAAATAATAATTA
DNA 2: TAATTATTATTTAAAATGAATTAGTGTTATAT
Kd (HpNikR K64A): 22 ± 2.2 nM | Kd (HpNikR K140A): 63 ± 5.6 nM | Kd (HpNikR GGS): 4.6 ± 1.2 nM
